Assay results reported in article PMC4577081 (2015).

Molecular target: human CD47/his fusion protein (extracellular domain of human CD47 fused to His-tag) (human)
Test: SPR; monomeric hCD47

B1: mouse anti-human CD47 monoclonal antibody 5F9 (antibody, V domains shown)
VH: QVQLQQPGAELVKPGASVMMSCKASGYTFTNYNMHWVKQTPGQGLEWIGTIYPGNDDTSYNQKFKDKATLTADKSSSAAYMQLSSLTSEDSAVYYCARGGYRAMDYWGQGTSVTVSS
VL: DVLMTQTPLSLPVSLGDQASISCRSSQSIVYSNGNTYLGWYLQKPGQSPKLLIYKVSNRFSGVPDRFSGSGSGTDFTLKISRVEAEDLGVYHCFQGSHVPYTFGGGTKVEIK
modifications: biotin-labeled in the competition ELISA (site not stated)
Kd: 19.9 nM
